Values belong to the molecule of their own block, whether it stands above or below them.
Legend:
[1] = molecular target: T1, GST-D3-IC3 (third intracellular loop of the rat dopamine D3 receptor) (Rattus norvegicus, UniProt P19020); experiment: GST pull-down binding of purified arrestin to GST-D3-IC3
T1 sequence (P19020 210-372): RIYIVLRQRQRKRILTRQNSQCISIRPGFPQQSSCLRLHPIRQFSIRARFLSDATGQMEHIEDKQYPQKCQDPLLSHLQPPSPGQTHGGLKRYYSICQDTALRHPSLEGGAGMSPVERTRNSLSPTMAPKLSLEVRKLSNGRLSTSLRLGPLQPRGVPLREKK

[2] = molecular target: T2, GST-D2-IC3 (third intracellular loop of the rat dopamine D2L receptor) (Rattus norvegicus, UniProt P61169); experiment: GST pull-down binding of purified arrestin to GST-D2-IC3
T2 sequence (P61169 211-371): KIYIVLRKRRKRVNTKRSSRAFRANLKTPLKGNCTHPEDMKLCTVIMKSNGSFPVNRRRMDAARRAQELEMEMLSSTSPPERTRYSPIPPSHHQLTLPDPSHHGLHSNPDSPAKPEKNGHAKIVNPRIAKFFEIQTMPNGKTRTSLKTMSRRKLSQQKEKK

D2-IC3ΔNT5 = molecular target: T3, D2-IC3ΔNT5 (Rattus norvegicus, UniProt P61169); experiment: GST pull-down binding of arrestin3 to D2-IC3ΔNT5; settings: versus D2-IC3; 400 ng fusion protein, 100 ng arrestin3
T3 sequence (P61169 216-371 limits assumed): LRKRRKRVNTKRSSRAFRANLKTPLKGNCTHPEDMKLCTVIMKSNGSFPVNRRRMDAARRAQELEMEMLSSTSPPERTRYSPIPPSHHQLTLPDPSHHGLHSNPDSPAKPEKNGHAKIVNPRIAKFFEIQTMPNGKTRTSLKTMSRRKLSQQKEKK

D2-IC3ΔNT10 = molecular target: T4, D2-IC3ΔNT10 (Rattus norvegicus, UniProt P61169); experiment: GST pull-down binding of arrestin3 to D2-IC3ΔNT10; settings: versus D2-IC3; 400 ng fusion protein, 100 ng arrestin3
T4 sequence (P61169 221-371 limits assumed): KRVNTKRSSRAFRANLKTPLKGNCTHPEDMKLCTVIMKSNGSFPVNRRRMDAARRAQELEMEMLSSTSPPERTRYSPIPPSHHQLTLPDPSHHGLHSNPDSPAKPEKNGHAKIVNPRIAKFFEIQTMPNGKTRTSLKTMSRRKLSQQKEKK

wild type D2 receptor = wild type D2 receptor (Rattus norvegicus, UniProt P61169); settings: PTX 50 ng/ml overnight prior to agonist treatment
Sequence of wild type D2 receptor (P61169 whole entry): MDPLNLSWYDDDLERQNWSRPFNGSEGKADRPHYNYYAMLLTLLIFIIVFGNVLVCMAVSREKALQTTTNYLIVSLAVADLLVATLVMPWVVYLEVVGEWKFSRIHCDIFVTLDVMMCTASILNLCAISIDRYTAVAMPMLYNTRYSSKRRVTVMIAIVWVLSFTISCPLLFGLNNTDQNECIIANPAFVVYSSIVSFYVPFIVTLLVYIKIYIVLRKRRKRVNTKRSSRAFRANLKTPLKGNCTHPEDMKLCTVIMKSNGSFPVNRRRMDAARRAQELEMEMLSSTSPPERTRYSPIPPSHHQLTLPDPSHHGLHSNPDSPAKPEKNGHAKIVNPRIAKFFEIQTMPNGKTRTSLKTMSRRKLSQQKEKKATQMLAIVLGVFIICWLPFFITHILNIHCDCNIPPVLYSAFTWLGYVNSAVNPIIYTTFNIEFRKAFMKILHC

D2-A4 mutant receptor = D2-A4 mutant receptor (Rattus norvegicus, UniProt P61169, I212A/I214A/V215A/Y213A); settings: PTX 50 ng/ml overnight prior to agonist treatment
Sequence of D2-A4 mutant receptor (P61169 whole entry I212A/Y213A/I214A/V215A): as the sequence (P61169 whole entry) above, with I212A, Y213A, I214A, V215A counted along it

[3] = molecular target: purified bovine arrestin3 (bovine, UniProt P32120 1-420); experiment: pull-down
Sequence of purified bovine arrestin3 (P32120 whole entry): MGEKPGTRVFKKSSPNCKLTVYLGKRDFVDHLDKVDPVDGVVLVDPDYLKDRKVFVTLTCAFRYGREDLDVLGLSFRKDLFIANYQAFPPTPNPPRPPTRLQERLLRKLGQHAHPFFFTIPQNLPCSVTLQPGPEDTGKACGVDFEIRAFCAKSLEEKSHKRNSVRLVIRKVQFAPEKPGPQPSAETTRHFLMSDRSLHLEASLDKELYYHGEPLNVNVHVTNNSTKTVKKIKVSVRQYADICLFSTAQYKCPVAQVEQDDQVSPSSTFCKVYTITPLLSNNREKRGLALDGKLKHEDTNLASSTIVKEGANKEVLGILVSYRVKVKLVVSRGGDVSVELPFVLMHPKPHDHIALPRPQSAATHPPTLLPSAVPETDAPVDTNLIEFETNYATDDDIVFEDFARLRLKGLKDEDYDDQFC

[4] = amount of arrestin3 bound to 300 ng of GST-IC3
[5] = saturation analysis, 300 ng GST-IC3, 30 min room temperature
[6] = rate of association, data not shown

Molecule: Arrestin2: purified bovine arrestin2, non-visual arrestin also termed β-arrestin 1
binding of arrestin2 ([1]; GST pull-down, in words): bound weakly | binding of arrestin2 ([2]; GST pull-down, in words): bound weakly

Molecule: pertussis toxin [PTX]
effect of PTX on activation of ERKs (wild type D2 receptor): greatly decreased | effect of PTX on activation of ERKs (D2-A4 mutant receptor): greatly decreased

More lines, now with the values ahead:

Bmax [1, 4]: 10.2 ± 0.6 ng | Kd [1, 5]: 79 ± 14 nM | Bmax [2, 4]: 10.1 ± 0.6 ng | half-time for binding [2, 6]: approximately 2 min | time at which binding approached equilibrium [2, 6]: ≤ 15 min | Kd [2, 5]: 72 ± 14 nM | Kd ([2]; summary for D2-like receptor IC3 (D2-IC3 and D3-IC3), GST pull-down): 70 to 80 nM | decrease of arrestin binding (D2-IC3ΔNT5): about 60% | decrease of arrestin binding (D2-IC3ΔNT10): about 60%
Molecule: Arrestin3: purified bovine arrestin3, non-visual arrestin also termed β-arrestin 2

Kd [3]: 72 nM
B1: GST-D2-IC3 (GST fusion of the third intracellular loop of the rat dopamine D2L receptor, amino acids 211-371) (domain or fragment, UniProt P61169 211-371, looked up)
chain: KIYIVLRKRRKRVNTKRSSRAFRANLKTPLKGNCTHPEDMKLCTVIMKSNGSFPVNRRRMDAARRAQELEMEMLSSTSPPERTRYSPIPPSHHQLTLPDPSHHGLHSNPDSPAKPEKNGHAKIVNPRIAKFFEIQTMPNGKTRTSLKTMSRRKLSQQKEKK

Kd [3]: 79 nM
B2: GST-D3-IC3 (GST fusion of the third intracellular loop of the rat dopamine D3 receptor, amino acids 210-372) (domain or fragment, UniProt P19020 210-372, looked up)
chain: RIYIVLRQRQRKRILTRQNSQCISIRPGFPQQSSCLRLHPIRQFSIRARFLSDATGQMEHIEDKQYPQKCQDPLLSHLQPPSPGQTHGGLKRYYSICQDTALRHPSLEGGAGMSPVERTRNSLSPTMAPKLSLEVRKLSNGRLSTSLRLGPLQPRGVPLREKK

Source: PMC2606918 (Molecular pharmacology, 2008)
